The data set can be described thus: yeast display, Sf9 membrane polyspecificity reagent, FACS + sequencing; frameworks hold sequencing errors. In outline: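 Nanobodies from a synthetic yeast display library (Saccharomyces cerevisiae BJ5465), induced 36–48 hours with galactose, were stained 1 hour at 4 °C with 10% biotinylated, detergent-solubilized Sf9 membrane reagent, enriched on streptavidin microbeads, then FACS-sorted. Anti-HA (expression) and streptavidin (reagent binding) fluorescence set low and high (top ~1%) gates. Polyreactivity labels come from the gate of origin. Genes were colony-PCR amplified, MiSeq 2 × 250 sequenced and filtered by CDR length.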
Consider “QVQLVESGGGLVQAGGSLRFSCAASGRTITRYAMGWYRQAPGKERELVAAISKRGTRTYYADSVKGRFTISRDHAKNTVYLQMNSLKPADTAVYYCNGAGRWALYYHLYTGFDYWGQGTQVTVSS”, for which the “polyreactivity (PSR sort gate)” value was “high polyreactivity”.

In the case of “QVQLVESGGGLVQAGGSLRFSCAASGRTSRYYAMRWYRQAPGKERELVAGISTGGSTYYADSVKGRFTISRDNAKNTVYLQMKSLKPEDTAVYYCAAKYTRTNYYYWYYRMDFWGQGTQVTVSS”, the “polyreactivity (PSR sort gate)” value was “low polyreactivity”.

“QVQLVESGGGLVQAGGSLRFSCAASGSIFDYYAMGWYRQAPGKERELVASITWSGGRTSYADSVKGRFTISRDNAKNTVYLQMNSLKPEDTAVYYCAAKLWSYAYQHKRVWYYYWGQGTQVTVSS”: the “polyreactivity (PSR sort gate)” value is reported as “high polyreactivity”.

Consider “QVQLVESGGGLVQAGGSLRFSCAASGSIFFNNAMGWYRQAPGKERELVAAITTGGSTYYADSVKGRFTISRDNAKNTVYLQMNSLKPEDTAVYYCAAVVVYPYRLGYDYWGQGTQVTVSS”, for which the “polyreactivity (PSR sort gate)” value is on record as “low polyreactivity”.

As for “QVQLVESGGGLVQAGGSLRFSCAASGSIFSWYAMGGYRQAPGKERELVAAITWTGGSTYYADSVKGRFTISRDNAKNTVYLQMNSLKPEETAVYYCAARRVVYRKYGDRARWYNYWGHGTQVTVSS”, the “polyreactivity (PSR sort gate)” value is recorded as “high polyreactivity”.

Take “QVQLVESGGGLVQAGGSLRFSCAASGSILYYNAKGWYIQAPGKEREFVAAISDSGSSTYYADSVKGRFTISRDTAKNTVYLQMNSLKPEDTADYYCNAYQGDKYDSWGQGSQVTVSS”: the “polyreactivity (PSR sort gate)” value is listed as “low polyreactivity”.

Turning to “QVQLVESGGGLVQAGGSLRFSCAASGSTFIGYAMGWYRQAPGKERELVAGISRGGRTNYADSVKGRFTISRDNAKHTVYLQMNSLKPEDTAVYYCAAGYRRYYEGFWVIQMNYWGQGTQVTVSS”, the “polyreactivity (PSR sort gate)” value is “high polyreactivity”.

For “QVQLVESGGGLVQAGGSLRFSCAASGSTFKAYAMGWYRQAPGKERDLVARITYSGDITYYADSVKGRFTISRDNAKNTVYVQMNSLKRDDTAVFYCNDGFFVLEYDYWGQGTQLTVSS”, the “polyreactivity (PSR sort gate)” value is reported as “low polyreactivity”.

Turning to “QVQLVESGGGLVQAGGSLRFSCAASGSTFRYNAMGWYRQAPGKERELVAVISWGGGRTYYADSVKGRFTISRDNAKNTVYLKMNSLKPEDTAVYYCNVYFGRIVARDYGYWGQGTQVTVSS”, the “polyreactivity (PSR sort gate)” value is “high polyreactivity”.

As to “QVQLVESGGGLVQAGGSLRFSCAASGSTFSYYDMGWYRQAPGKEREMVAAISWNGGTTFYADSVKGRFTISRDNAMNTVYLQMKSLKPEDTAVYYCAVTGFEVLWPSLGGELDYWGQGTQVTVSS”, the “polyreactivity (PSR sort gate)” value is recorded as “low polyreactivity”.

Take “QVQLVESGGGLVQAGGSLRFSCAASGSTFYSYAMGWYRQAPGKERELVAGITGNDGSTYYADSVKGRFTISRDNAKNTVYLQMNSLKPEDTAVYYCNTDASPYLFDYWGQGTQVTVSS”: the “polyreactivity (PSR sort gate)” value is reported as “low polyreactivity”.

With “QVQLVESGGGLVQAGGSLRFSCAASGTFYYYAMGWYRHAPGKERELVAAISYSGGRTYYADSVKGRFTISRDNAKNTVYLQMNSLKPEDTAVYYCNALYRKTPSYGADDYWGQGTQVTVSS”, the “polyreactivity (PSR sort gate)” value was “high polyreactivity”.

With “QVQLVESGGGLVQAGGSLRFSCAGSGSTFRNYAMGWYRQAPGQERAFVATISSAGGTTYYADSVKGRFTISRDKAKNTLYVQMNSLNPEDTAVYYCAADQHSYRYGGYYYWGQGTQVTVSS”, the “polyreactivity (PSR sort gate)” value is “low polyreactivity”.

Turning to “QVQLVESGGGLVQAGGSLRFSCSASGSIFNYYTMGWYRQAPGKERELVAVITSGGSTYYADSVKGRFTISRDNAKNTVYLQMNSLKPEDTAVYYCAAKRRSYLKQGYSVGYWGQGSQVTVSS”, the “polyreactivity (PSR sort gate)” value is listed as “high polyreactivity”.

On to “QVQLVESGGGLVQAGGSLRFSCSAYGSILPGYAMGWYRQAPGKERELVDAISYRGTSTYYADSVKGRFTISRDNAKNTVYLQMNSLKPEDTAVYYCAAGGSWFSYPPRMDYWGQGTQVTVSS”, for which the “polyreactivity (PSR sort gate)” value was “high polyreactivity”.

As for “QVQLVESGGGLVQAGGSLRFTFGATGIIFYRNTMGWYSLAPGKHRELVASLSRGGSTNYADSVKGRFTISRDNAKTTVYLQMNRLKPEDTAVDYCAAYTDIPLSYYRGYTMDYWGQGTQVTVSS”, the “polyreactivity (PSR sort gate)” value is “low polyreactivity”.

As to “QVQLVESGGGLVQAGGSLRICCADSGLTFRFYSSGWYRQAPGKEMELVAAISRSGGSTYYADSVKGRFTISRDNAKNTVYLQMNSLKPEDSAVYYCAAGRRGGKHGGTRGGDYWGQGTQVTVSS”, the “polyreactivity (PSR sort gate)” value was “high polyreactivity”.

In the case of “QVQLVESGGGLVQAGGSLRIICAASGRIFSKYARGWYRQAPGKERELVAAISSRGGNTYYADSVKGRFTISRDNAKNTVYLQMTSLKPEDTAVYFCAAGYYYTGYEYDYWGQGTQVTVSS”, the “polyreactivity (PSR sort gate)” value is “high polyreactivity”.

Take “QVQLVESGGGLVQAGGSLRIICAASGRIFTFYAMGWYRQATGKARELVASIRSSTYYADSVKGRFTISRDNAKYTVYLQMNSLKPEDTALYYCNVRLSYSYISPSDWNFDYWGQGTQVTVSS”: the “polyreactivity (PSR sort gate)” value is reported as “low polyreactivity”.

Regarding “QVQLVESGGGLVQAGGSLRIICAASGSTFTWNDMRWYRQAPGKERELVAGISLSAGSTYYADSVKGRFTISRDNAKNTDYLQMKSLKPEHTAVYYCNADPGGPDTYEEHDYWGQGTQVTVSS”, the “polyreactivity (PSR sort gate)” value is listed as “low polyreactivity”.

As for “QVQLVESGGGLVQAGGSLRIISAASGSTFTRYTMGWYRQAPGKEMEFVAAISFSGGSTYYADSVKGRFTIARDNAKNTVYLEMNSLKPEDTAVYYCAASAHCYRPARDYWGQGTQVTVSS”, the “polyreactivity (PSR sort gate)” value is “low polyreactivity”.

For “QVQLVESGGGLVQAGGSLRIRCAASGRIFRTNAMGWYRQAPGKERELVAAISDSGADTSYADSVKGRFSISRDNAKNTDYLQMNSLKPEDTAVDYCNRGRVYYRYLKDYDYWGQGTQVTVSS”, the “polyreactivity (PSR sort gate)” value is “low polyreactivity”.

On to “QVQLVESGGGLVQAGGSLRIRCAASGSTFKTYTMGWYRQAPGKERELVAGITSGGSTSYADSVKGRFTISRDNAKNTVYLQMNSLKPEVTAVYYCAAAEGGGLVTYDYCGQGTQVTVSS”, for which the “polyreactivity (PSR sort gate)” value is “low polyreactivity”.

As to “QVQLVESGGGLVQAGGSLRISCAASAHIFDYNAMGWYRQAPGKERELVAAITSGGTTTYADSVKGRFTISRDNAKNTVDLQMNSLKPEDTAVYYCNTYGQTDTYWRYYYWGQGTQVTVSS”, the “polyreactivity (PSR sort gate)” value is reported as “high polyreactivity”.

As for “QVQLVESGGGLVQAGGSLRISCAASGFIFPFYAMGWYRQAPVKERELVATITSGGSTNYADSVKGRFTISRDNAKNTVYLQMNSQKPEDTAVYYCAAVIVPYGPSTFRVVGLDYWGQGTQVTVSS”, the “polyreactivity (PSR sort gate)” value is “low polyreactivity”.

For “QVQLVESGGGLVQAGGSLRISCAASGFIFRQYAMGWYRQAPGKERELVAAISRSGGSTYYADSVKGRFTISRDNAKNTVYLQMNSLKPEDTAVYYCNAVPRKYTDEFDYWGQGTQVTVSS”, the “polyreactivity (PSR sort gate)” value is “high polyreactivity”.

As for “QVQLVESGGGLVQAGGSLRISCAASGFSFVWYAMGWYRQAPGKERELVAAINWSGGHTYYADSVKGRFTISRDNAKNTVYLQMNSQKPVETAVYYCNADSLWYWFYPYNYWGQGTQVTVSS”, the “polyreactivity (PSR sort gate)” value is on record as “low polyreactivity”.

In the case of “QVQLVESGGGLVQAGGSLRISCAASGFTFHSYAMGWYIQAPGKERELVDAISYSGGSTYYADSVKGRFTISRDNAKNTVYLQMNSLKPEDSAVYYCAVLRYIYGYANDYWGQGTQLTVSS”, the “polyreactivity (PSR sort gate)” value is given as “low polyreactivity”.

Take “QVQLVESGGGLVQAGGSLRISCAASGFTFRANAMGWYRQAPGKEREVVAAISQSGGRTYYADSVKARFTISRDNAKNTVYLQMNSLKPEDTAVYDCAAPDSAKELYYRMDYWGQGTQVTVSS”: the “polyreactivity (PSR sort gate)” value is reported as “high polyreactivity”.

For the sequence “QVQLVESGGGLVQAGGSLRISCAASGFTFSSYAMGRSRPAPGKERELVAGITIDGNTYYADSVKGRFTISRDNAKNTVYLQMNSLKPEDTAVYYCAAVAYYYGYDYWGQGTQVTVSS”, the “polyreactivity (PSR sort gate)” value is reported as “low polyreactivity”.

Regarding “QVQLVESGGGLVQAGGSLRISCAASGFTFSYNTMGWYRQAPGKERELVAAITGDVSTNYADSVKGRFTISRDNAKNTVYLQMNSLKPEDTAVYYCAARPNFPGYEDLSVDFEYWGQGTQGTVSS”, the “polyreactivity (PSR sort gate)” value is listed as “low polyreactivity”.

Turning to “QVQLVESGGGLVQAGGSLRISCAASGFTFVINEMGWYRPAPGKERELVADITSGGDTYYADSVKGRFTISRDNAKNTVYLQMNSLKPEDTAVYYCAAYIYPDWIYLLYGYWGQGTQVTVSS”, the “polyreactivity (PSR sort gate)” value is listed as “low polyreactivity”.

“QVQLVESGGGLVQAGGSLRISCAASGFTFYTNAMGWYIQAPGKERELVAAISSGGSTNYADSVKGRFTISRDNAKNTVYLQMNSLQPEDSAVYYCAARRGYWGQGTQVTVSS”: the “polyreactivity (PSR sort gate)” value was “high polyreactivity”.

For “QVQLVESGGGLVQAGGSLRISCAASGGIFWTYAMGWYRQEPGKERELVAAISYSDGITYYADSVKGRFTISRDNAKNTVYFQMNSLKPEDTAVYYCAADPELAVPMYYWGQGTQVTVSS”, the “polyreactivity (PSR sort gate)” value was “low polyreactivity”.

For “QVQLVESGGGLVQAGGSLRISCAASGINFVTYAMGWYRKAPGKEREFVASINWITGNTYYADSVKGRFTISRDNAKNTVYLQMNSLKPEDTAVYYCATVDWSLYLGTPPSYYWGQGTQVTVSS”, the “polyreactivity (PSR sort gate)” value is “low polyreactivity”.

Take “QVQLVESGGGLVQAGGSLRISCAASGITFAWYAMGWYRQAPGKERELVATISAGGAITYYADSVKGRFTISRDNAKNTVYLQMNSLKPEDTAVYYCNAVTYGPYGWGQGTQVTVSS”: the “polyreactivity (PSR sort gate)” value is reported as “high polyreactivity”.

In the case of “QVQLVESGGGLVQAGGSLRISCAASGITFPVYTMGWYRQAPGKERELVAAITSSGGSTYYADSVKGRFTISRDNAKNTVYLQMNSLKPEDTAVYYCAARDYGRHHTYGYWGQGTQVTVSS”, the “polyreactivity (PSR sort gate)” value is on record as “high polyreactivity”.

In the case of “QVQLVESGGGLVQAGGSLRISCAASGITFVPNAMGWYRQAPGKERELVAAITGNGGRTYYADSVKGRFTISRDNAKNTVYLQMNSLKPEDTAVYYCNARKLYWAYTLRKYDYWGQGTQVTVSS”, the “polyreactivity (PSR sort gate)” value is given as “high polyreactivity”.

“QVQLVESGGGLVQAGGSLRISCAASGITLINDAMGWYRQAPGKERELVAAITYRGVSTYYADSVKGRFTISRDNAKNTVYLQMKSLKPEDTAVYYCAAGYYWQYTSSSAQYSYDYWGQGTQVTVSS”: the “polyreactivity (PSR sort gate)” value was “low polyreactivity”.

As for “QVQLVESGGGLVQAGGSLRISCAASGLIFAIYAMGWYRQAPGKERELVAAIRWSGASTYADSVKGRFTISRDNAKNTVYLQMNSLKAEDTAVYYCAADDLLDYDNWGQGTQVTVSS”, the “polyreactivity (PSR sort gate)” value is recorded as “low polyreactivity”.
